# Data from patent publication US12441811B2, “Compositions and methods for treating serpin B13 disorders” (REGENTS OF THE UNIVERSITY OF MINNESOTA, priority 2019, dated 2025).
# What was measured:
# catL = catL activity in vivo with activity-based probe ProSense 680; parameters: species or system mouse
# Procedure: CatL has been implicated as a serpinB13 protease target. To examine the consequences of inhibiting serpinB13 using a mAb (clone B29), the catalytic activity of catL was measured. […] To measure catL activity in vivo, the activity-based probe, ProSense 680, was used. […] This increase was limited to the pancreas in wild-type Balb/c mice and was not observed in the liver, where serpinB13 is not expressed, or in the pancreas of catL-deficient Balb/c mice.
# [1] = system: pancreatic islets and β-cells; assay: Follow-up of healthy offspring with gestational exposure to anti-serpinB13 mAb; type: in vivo, mouse; details: for β-cell mass per animal (islet mass): offspring
# Procedure: The control mouse mAb (clone TIB92) was from ATCC (Manassas, VA, USA). The recombinant human control Ab (cat. No 403502) was from BioLegend (San Diego, CA). In most of the experiments, anti-serpinB13 mAb (clone B29) or control mouse mAb was injected i.p. into pregnant female mice at 50 μg for four consecutive days, starting at gestational day E10.5 (total dose of 200 μg). In the lineage tracing experiments in adult mice, B29 was injected i.p. for 7 days at 100 μg/injection during the first week after STZ treatment (total dose of 700 μg).
# Preparation of the islets and single islet-cell suspensions. The adult pancreases were subjected to digestion with collagenase P and passed through the 100-μm strainers to separate the islets from debris. The blindly digested pancreatic samples were manually counted for the number of pancreatic islets under a dissecting microscope with a warm halogen light from below. The islets were defined as any visible, distinct cluster of cells with smooth edges and light- to dark-brown glowing color and diameter greater than 100 μm. The hand-picked islets were then dispersed with CellStripper (cat. no. 25-056-CI; Corning, Corning, NY). The cells were fixed and permeabilized, using the Foxp3/Transcription Factor Staining Buffer Set to permit intracellular staining.
# (§1) Calculation of the islet mass. In embryos, the β-cell mass was expressed as the percentage of the area of all pancreatic sections combined, that positively stained with anti-insulin antibody. To calculate β-cell mass in adult mice, the percentage insulin-positive area was multiplied by the pancreas weight expressed in milligrams.
# Estimating the number of islets and islet cells. The islets were manually counted under a dissecting microscope. To estimate the number of α and β cells, the islet cells were dispersed, intracellularly stained with antibodies to […], respectively, and their counts measured by FACS.
# [2] = system: streptozotocin-induced diabetes; assay: STZ-induced diabetes in adult offspring with gestational exposure to anti-serpinB13 mAb; type: in vivo, mouse; details: for preserved residual β-cell mass: 4 weeks after STZ 150 mg/kg in adulthood; for preserved residual β-cell mass / diabetes / severity of the disease: prenatal exposure; for diabetes / severity of the disease: STZ injected in adulthood, vs control antibody
# Description: as §1
# Diabetes induction and monitoring. C57BL/6 male mice, which are susceptible to STZ-induced diabetes, were subjected to a 6-hour period of bedding removal and fasting with unlimited access to drinking water. At the end of fasting, STZ was dissolved in a freshly prepared buffer (50 mM Sodium Citrate, pH 4.5) and immediately injected i.p. at 150 mg/kg. The glucose levels in tail blood were measured at random every 7 days for 4 weeks. Alternatively, to perform the glucose tolerance test, STZ-treated C57BL/6J male mice were first fasted for 6 hours with unlimited access to drinking water, and then injected i.p. with a 10% D-(+)-glucose solution (10 μL/g body weight). A glucometer (One-Touch Ultra) was used to monitor glucose levels using tail blood collected before glucose injection, and after injection at 30-min intervals for 2 hours. For glucometer glucose readings “above 600 mg/dL”, the data were extrapolated to the value of 700 mg/dL for algebraic statistical purposes only.
# [3] = 8-week old offspring, prenatal exposure
molecule,measurement,setting,value
"B29: mouse monoclonal antibody to serpin B13, clone B29; heavy chain SEQ ID NO:14, kappa light chain SEQ ID NO:16 (antibody, V domains shown) VH: QIQLVQSGPELKKPGETVKISCKASGYTFTTYGMSWVKQAPGKGLKWMGWINTYSGMPTYADDFKGRFAFSLETSATTAYLQINNLKNEDTATYFCARPLLGLDYWGQGTTLTVSS VL: DIVMTQTPLSLSVTIGQPASISCKSSQSLLHSDGKTFLNWFLQRPGQSPKLLIYLVSKLESGIPDRFSGSGSGTDFTLKISRVEVEDLGVYYCLQHTHFPLTFGAGTKLEIK",increase in catL activity in the pancreas of catL-deficient mice,catL; catL-deficient Balb/c mice,not observed
same,increase in catL activity in the liver,"catL; liver, where serpinB13 is not expressed",not observed
same,catL activity,"catL; summary statement, setting not specified",augmented
same,catL activity in the intact pancreas,"catL; wild-type Balb/c mice, after injection of mAb, ProSense 680",significant increase
same,number of pancreatic islets,[1]; [3],significant increase
same,total β-cell number,[1]; [3],significant increase
same,α-cell population,[1]; [3],significantly increased
same,total pancreas and body weight,"[1]; at birth and in adulthood, vs control group",remained the same
same,β-cell mass per animal (islet mass),"[1]; prenatal exposure, listed as anti-serpinB13 antibody",increased
same,β-cell mass per animal (islet mass),"[1]; prenatal exposure, listed as anti-serpinB13 mAb",significant increase
same,β-cell mass per animal (islet mass),"[1]; prenatal exposure, listed as mAb",significant expansion
same,loss of body weight,[2]; 1-4 weeks after STZ,prevented
same,serum creatinine as a measure of renal function,[2]; 4 weeks after STZ,improved
same,preserved residual β-cell mass,[2]; listed as anti-serpinB13 mAb,over two-fold greater
same,preserved residual β-cell mass,[2]; listed as serpinB13 mAb,higher
same,diabetes / severity of the disease,[2],helped to prevent severe diabetes
same,diabetes / severity of the disease,[2]; listed as anti-serpinB13 antibody,improved outcomes
same,diabetes / severity of the disease,[2]; listed as anti-serpinB13 mAb,"either completely protected against diabetes (FIG. 24A-24B), or ameliorated the severity of the disease"
same,diabetes / severity of the disease,[2]; listed as mAb,improved resistance
same,diabetes / severity of the disease,[2]; listed as serpinB13 mAb,reduced severity of disease
same,blood glucose control,"[2]; ipGTT at 2 weeks, random glucose 1-4 weeks after STZ",improved
